Patent US20170189507A1

Biological target: HLA-A*24 (human)
Assay: UV-ligand exchange ELISA

| Binder | peptide exchange yield |
| --- | --- |
| RYAEEVGIF [peptide SEQ ID No 199] | 50 to 75% |
| YYGPSLFLL [peptide SEQ ID No 200] | 50 to 75% |
| IYATEAHVF [peptide SEQ ID No 201] | 50 to 75% |
| VYWDSAGAAHF [peptide SEQ ID No 202] | > 75% |
| TYELRYFQI [peptide SEQ ID No 204] | > 75% |
| AYVVFVSTL [peptide SEQ ID No 207] | 20 to 49% |
| TYKDEGNDYF [peptide SEQ ID No 209] | 50 to 75% |
| YYKSTSSAF [peptide SEQ ID No 218] | 50 to 75% |
| TFSVSSHLF [peptide SEQ ID No 222] | 50 to 75% |
| QYLGQIQHI [peptide SEQ ID No 268] | 50 to 75% |
| YFIDSTNLKTHF [peptide SEQ ID No 269] | 50 to 75% |
| NYYEVHKELF [peptide SEQ ID No 270] | 50 to 75% |
| VYQGHTALL [peptide SEQ ID No 277] | > 75% |
| PYRLIFEKF [peptide SEQ ID No 281] | 20 to 49% |
| HYPPVQVLF [peptide SEQ ID No 285] | 50 to 75% |
| LYITEPKTI [peptide SEQ ID No 287] | 50 to 75% |
